Measured values as given in US20180155451A1 (published 2018).
Where a chain is given by its changes, count along the chain named. In names and notes the source's numbering stands.

T1: FcgRIIb (human, UniProt P31994 43-217)
T1 construct: extracellular domain; also called FcγRIIb; not shown: His tag attached to the C terminus
T1 sequence (looked up): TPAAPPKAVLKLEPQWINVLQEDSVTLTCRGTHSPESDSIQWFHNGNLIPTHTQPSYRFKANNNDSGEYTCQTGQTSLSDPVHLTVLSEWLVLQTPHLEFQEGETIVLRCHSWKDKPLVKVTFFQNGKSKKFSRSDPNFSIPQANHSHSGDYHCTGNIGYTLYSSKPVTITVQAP

T2: FcγRIIb extracellular domain with C-terminal His tag (human, UniProt P31994 43-217)
T2 construct: extracellular domain; Soluble receptor expressed in FreeStyle293 cells, used as analyte in Biacore; also called FcgRIIb; CD32B; not shown: His tag at the C terminus
T2 sequence (looked up): T1 sequence (looked up)

B1: GpH7-A5/GpH7-B3 variant Q295_18N/GpL16-k0 (antibody, human IgG1, kappa)
heavy 1: not shown
heavy 2: not shown
light: DIVMTQSPLSLPVTPGEPASISCQASESLVHSNRNTYLHWYLQKPGQSPQLLIYKVSNRFSGVPDRFSGSGSGTDFTLKISRVEAEDVGVYYCSQNTHVPPTFGQGTKVEIERTVAAPSVFIFPPSDEQLKSGTASVVCLLNNFYPREAKVQWKVDNALQSGNSQESVTEQDSKDSTYSLSSTLTLSKADYEKHKVYACEVTHQGLSSPVTKSFNRGEC
notes: mutation in one H chain only; also called He Ab Q295_18N; Q295N
B2: GpH7-A5/GpH7-B3 variant Q295_16H/GpL16-k0 (antibody, human IgG1, kappa)
heavy 1: not shown
heavy 2: not shown
light: B1 light
notes: mutation in one H chain only; also called He Ab Q295_16H; Q295H
B3: GpH7-A5/GpH7-B3 variant S239_01G/GpL16-k0 (antibody, human IgG1, kappa)
heavy 1: not shown
heavy 2: not shown
light: B1 light
notes: mutation in one H chain only; also called He Ab S239_01G; S239G
B4: H240-Kn061 (W236Y)/H240-Hl071/L73-k0 (antibody, human IgG1, kappa)
heavy 1: QDQLVQSGAEVKKPGASVKVSCKASGFNIKDTYIQWVRQAPGQGLEWMGRIDPLRKQTKYREKFEGRVTITADTSTNTAYMELSSLRSEDTAVYYCVRSGREFDYWGQGTLVTVSSASTKGPSVFPLAPSSKSTSGGTAALGCLVKDYFPEPVTVSWNSGALTSGVHTFPAVLQSSGLYSLSSVVTVPSSSLGTQTYICNVNHKPSNTKVDKKVEPKSCDKTHTCPPCPAPEYYYGPSVFLFPPKPKDTLMISRTPEVTCVVVDVSDEDPEVKFNWYVDGVEVHNAKTKPREEQYNATYRVVSVLTVLHQDWLNGKEYKCKVSNKALPAPIEKTISKAKGQPREPQVCTLPPSRDELTKNQVSLWCLVKGFYPSDIAVEWESNGQPENNYKTTPPVLDSDGSFFLYSKLTVDKSRWQQGNVFSCSVMHEALHNHYTQKSLSLSP
heavy 2: QDQLVQSGAEVKKPGASVKVSCKASGFNIKDTYIQWVRQAPGQGLEWMGRIDPLRKQTKYREKFEGRVTITADTSTNTAYMELSSLRSEDTAVYYCVRSGREFDYWGQGTLVTVSSASTKGPSVFPLAPSSKSTSGGTAALGCLVKDYFPEPVTVSWNSGALTSGVHTFPAVLQSSGLYSLSSVVTVPSSSLGTQTYICNVNHKPSNTKVDKKVEPKSCDKTHTCPPCPAPELLGGPSVFLFPPKPKDTLMISRTPEVTCVVVDVSHEDPEVKFNWYVDGVEVHNAKTKPREEQYNSTYRVVSVLTVLHQDWLNGKEYKCKVSNDALPMPIEETISKAKGQPREPQVYTLPPSRCELTKNQVSLSCAVKGFYPSDIAVEWESNGQPENNYKTTPPVLDSDGSFFLVSKLTVDKSRWQQGNVFSCSVMHEALHNHYTQKSLSLSP
light: DIQMTQSPSSLSASVGDRVTITCRASQDIHKYIAWYQQKPGQAPRLLIQYTSTLQPGVPSRFSGSGSGTDYTFTISSLQPEDIATYYCLQYEQLRTFGGGTKVEIKRTVAAPSVFIFPPSDEQLKSGTASVVCLLNNFYPREAKVQWKVDNALQSGNSQESVTEQDSKDSTYSLSSTLTLSKADYEKHKVYACEVTHQGLSSPVTKSFNRGEC
B5: H240-Kn061 (Y235E)/H240-Hl071/L73-k0 (antibody, human IgG1, kappa)
heavy 1: B4 heavy 1 with Y234E, Y235W
heavy 2: B4 heavy 2
light: B4 light
B6: H240-Kn061 (Y235T)/H240-Hl071/L73-k0 (antibody, human IgG1, kappa)
heavy 1: B4 heavy 1 with Y234T, Y235W
heavy 2: B4 heavy 2
light: B4 light
B7: H240-Kn061 (Y234A)/H240-Hl071/L73-k0 (antibody, human IgG1, kappa)
heavy 1: B4 heavy 1 with Y233A, Y235W
heavy 2: B4 heavy 2
light: B4 light
B8: H240-Kn061 (Y234S)/H240-Hl071/L73-k0 (antibody, human IgG1, kappa)
heavy 1: B4 heavy 1 with Y233S, Y235W
heavy 2: B4 heavy 2
light: B4 light
B9: H240-Kn061 (Y235F)/H240-Hl071/L73-k0 (antibody, human IgG1, kappa)
heavy 1: B4 heavy 1 with Y234F, Y235W
heavy 2: B4 heavy 2
light: B4 light
B10: H240-Kn061 (Y235N)/H240-Hl071/L73-k0 (antibody, human IgG1, kappa)
heavy 1: B4 heavy 1 with Y234N, Y235W
heavy 2: B4 heavy 2
light: B4 light
B11: H240-Kn061 (Y234G)/H240-Hl071/L73-k0 (antibody, human IgG1, kappa)
heavy 1: B4 heavy 1 with Y233G, Y235W
heavy 2: B4 heavy 2
light: B4 light
B12: H240-Kn061 (Y235W)/H240-Hl071/L73-k0 (antibody, human IgG1, kappa)
heavy 1: B4 heavy 1 with Y234W, Y235W
heavy 2: B4 heavy 2
light: B4 light
notes: also called H240-Kn061 Y2351N
B13: H240-Kn061 (Y234H)/H240-Hl071/L73-k0 (antibody, human IgG1, kappa)
heavy 1: B4 heavy 1 with Y233H, Y235W
heavy 2: B4 heavy 2
light: B4 light
B14: H240-Kn061 (Y235L)/H240-Hl071/L73-k0 (antibody, human IgG1, kappa)
heavy 1: B4 heavy 1 with Y234L, Y235W
heavy 2: B4 heavy 2
light: B4 light
B15: H240-Kn061 (Y235M)/H240-Hl071/L73-k0 (antibody, human IgG1, kappa)
heavy 1: B4 heavy 1 with Y234M, Y235W
heavy 2: B4 heavy 2
light: B4 light
B16: GpH7-A5/GpH7-B3 variant G237_11K/GpL16-k0 (antibody, human IgG1, kappa)
heavy 1: not shown
heavy 2: not shown
light: B1 light
notes: Heterodimerized anti-glypican-3 IgG1; substitution in only one H chain; also called G237K; He Ab
B17: GpH7-A5/GpH7-B3 variant P238_01G/GpL16-k0 (antibody, human IgG1, kappa)
heavy 1: not shown
heavy 2: not shown
light: B1 light
notes: Heterodimerized anti-glypican-3 IgG1; substitution in only one H chain; also called P238G; He Ab
B18: GpH7-A5/GpH7-B3 variant G237_14T/GpL16-k0 (antibody, human IgG1, kappa)
heavy 1: not shown
heavy 2: not shown
light: B1 light
notes: Heterodimerized anti-glypican-3 IgG1; substitution in only one H chain; also called G237T; He Ab
B19: GpH7-A5/GpH7-B3 variant G237_12R/GpL16-k0 (antibody, human IgG1, kappa)
heavy 1: not shown
heavy 2: not shown
light: B1 light
notes: Heterodimerized anti-glypican-3 IgG1; substitution in only one H chain; also called G237R; He Ab
B20: GpH7-A5/GpH7-B3 variant P238_02A/GpL16-k0 (antibody, human IgG1, kappa)
heavy 1: not shown
heavy 2: not shown
light: B1 light
notes: Heterodimerized anti-glypican-3 IgG1; substitution in only one H chain; also called P238A; He Ab
B21: GpH7-A5/GpH7-B3 variant G237_16H/GpL16-k0 (antibody, human IgG1, kappa)
heavy 1: not shown
heavy 2: not shown
light: B1 light
notes: Heterodimerized anti-glypican-3 IgG1; substitution in only one H chain; also called G237H; He Ab

target: T3, FcγRIa extracellular domain with C-terminal His tag (human, UniProt P12314 16-292); assay: SPR Biacore, relative FcγRIa binding vs GpH7-A5/GpH7-B3/GpL16-k0
T3 construct: extracellular domain; also called FcgRI; CD64; not shown: His tag at the C terminus
T3 sequence (P12314 16-292): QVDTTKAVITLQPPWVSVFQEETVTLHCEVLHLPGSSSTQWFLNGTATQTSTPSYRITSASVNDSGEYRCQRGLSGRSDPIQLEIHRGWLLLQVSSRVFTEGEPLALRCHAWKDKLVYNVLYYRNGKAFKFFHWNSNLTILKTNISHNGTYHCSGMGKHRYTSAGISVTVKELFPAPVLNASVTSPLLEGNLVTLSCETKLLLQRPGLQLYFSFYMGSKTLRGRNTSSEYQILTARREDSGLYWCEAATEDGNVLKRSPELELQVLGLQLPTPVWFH

| He/Con_1a | Binder |
| --- | --- |
| 102 % of HeCon Ab (=100) | B1 |
| 102 % of HeCon Ab (=100) | B2 |
| 101 % of HeCon Ab (=100) | B3 |

target: T1, FcgRIIb; assay: SPR (Biacore); KD of H240-Kn061/H240-Hl071/L73-k0 divided by KD of the variant
Description: (§1) The antibodies were assessed for the binding to each FcgR. […] The resultant value was defined as relative KD, and used as an assessment indicator.
(§2) Analysis of interaction between obj ective antibody and the FcγR was carried out using Biacore T100 (GE Healthcare), Biacore T200, Biacore A100, and Biacore 4000. HBS-EP+ (GE Healthcare) was used as the running buffer, and the measurement temperature was set to 25° C. Chips produced by immobilizing the antigen peptide by the amine coupling method to a Series S sensor Chip CM5 (GE Healthcare), chips produced by allowing preliminarily biotinylated antigen peptides to interact with and immobilize onto a Series S Sensor Chip SA (certified) (GE Healthcare), chips produced by immobilizing Protein L (ACTIGEN, BioVision) to Series S Sencor Chip CM5 (GE Healthcare), or chips produced by immobilizing Protein A/G (Thermo Scientific) to Series S Sencor Chip CM5 (GE Healthcare) were used. Antibodies of interest were captured onto these chips, and allowed to interact to each FcγR diluted with running buffer.

| Relative KD | Binder |
| --- | --- |
| 0.8 | B4 |
| 0.8 | B5 |
| 0.6 | B6 |
| 1.2 | B7 |
| 1 | B8 |
| 1.2 | B9 |
| 0.7 | B10 |
| 0.9 | B11 |
| 1.3 | B12 |
| 1.3 | B13 |
| 0.9 | B14 |
| 0.7 | B15 |

target: T4, FcgRIIIa F (human, UniProt P08637 17-208); assay: as above
T4 construct: extracellular domain; also called FcγRIIIa F; 3aF; not shown: His tag attached to the C terminus
T4 sequence (P08637 17-208): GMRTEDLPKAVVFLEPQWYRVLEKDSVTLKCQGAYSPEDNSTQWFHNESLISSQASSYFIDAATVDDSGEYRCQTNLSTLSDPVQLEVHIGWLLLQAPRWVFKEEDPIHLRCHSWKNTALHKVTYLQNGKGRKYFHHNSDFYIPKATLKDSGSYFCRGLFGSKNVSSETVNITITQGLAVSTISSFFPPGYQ
Description: as §1, §2

| Relative KD | Binder |
| --- | --- |
| 0.8 | B4 |
| 2.2 | B5 |
| 0.9 | B6 |
| 0.8 | B7 |
| 0.9 | B8 |
| 1.3 | B9 |
| 1.3 | B10 |
| 0.8 | B11 |
| 1.1 | B12 |
| 0.8 | B13 |
| 1.8 | B14 |
| 1.7 | B15 |

target: T5, FcgRIIIa V (human, UniProt P08637 17-208); assay: as above
T5 construct: extracellular domain; also called FcγRIIIa V; not shown: His tag attached to the C terminus
T5 sequence (P08637 17-208 F176V limits assumed): as the sequence (P08637 17-208) above, with F160V counted along it
Description: as §1, §2

| Relative KD | Binder |
| --- | --- |
| 1.2 | B4 |
| 3.2 | B5 |
| 1.1 | B6 |
| 0.9 | B7 |
| 0.9 | B8 |
| 1.5 | B9 |
| 2 | B10 |
| 0.9 | B11 |
| 1.3 | B12 |
| 0.9 | B13 |
| 1.5 | B14 |
| 1.8 | B15 |

target: T6, FcγRIa extracellular domain with C-terminal His tag (human, UniProt P12314 16-292); assay: SPR (Biacore); ratio of He/Con_1a (FcγRIa) to He/Con_2b (FcγRIIb) of the same antibody
T6 construct: extracellular domain; Soluble receptor expressed in FreeStyle293 cells, used as analyte in Biacore; also called FcgRI; CD64; not shown: His tag at the C terminus
T6 sequence (P12314 16-292): as the sequence (P12314 16-292) above

| Ia/IIb He_1a/2b | Binder |
| --- | --- |
| 7.05 | B16 |
| 1.66 | B17 |
| 1.5 | B18 |
| 6.71 | B19 |
| 1.66 | B20 |
| 1.32 | B21 |

target: T6, FcγRIa extracellular domain with …; assay: SPR (Biacore), antibody captured via antigen peptide, FcγR as analyte; binding relative to GpH7-A5/GpH7-B3/GpL16-k0 = 100

| He/Con_1a | Binder |
| --- | --- |
| 63.3 % of control (GpH7-A5/GpH7-B3/GpL16-k0 = 100) | B16 |
| 92.9 % of control (GpH7-A5/GpH7-B3/GpL16-k0 = 100) | B17 |
| 82.3 % of control (GpH7-A5/GpH7-B3/GpL16-k0 = 100) | B18 |
| 65.8 % of control (GpH7-A5/GpH7-B3/GpL16-k0 = 100) | B19 |
| 95.2 % of control (GpH7-A5/GpH7-B3/GpL16-k0 = 100) | B20 |
| 72.6 % of control (GpH7-A5/GpH7-B3/GpL16-k0 = 100) | B21 |

target: T2, FcγRIIb extracellular domain with …; assay: as above

| He/Con_2b | Binder |
| --- | --- |
| 56 % of control (GpH7-A5/GpH7-B3/GpL16-k0 = 100) | B17 |
| 54.8 % of control (GpH7-A5/GpH7-B3/GpL16-k0 = 100) | B18 |
| 57.4 % of control (GpH7-A5/GpH7-B3/GpL16-k0 = 100) | B20 |
| 55.2 % of control (GpH7-A5/GpH7-B3/GpL16-k0 = 100) | B21 |
